Patent US20190375812A1

Target: IL2Rαβγ, the high affinity IL-2 receptor, on human Treg cells (human) (UniProt P01589)
Experiment: cell-based or functional assay

Chain of IL2Rαβγ, the high affinity IL-2 receptor, on human Treg cells (human) (P01589 22-272, chain 1 of 3): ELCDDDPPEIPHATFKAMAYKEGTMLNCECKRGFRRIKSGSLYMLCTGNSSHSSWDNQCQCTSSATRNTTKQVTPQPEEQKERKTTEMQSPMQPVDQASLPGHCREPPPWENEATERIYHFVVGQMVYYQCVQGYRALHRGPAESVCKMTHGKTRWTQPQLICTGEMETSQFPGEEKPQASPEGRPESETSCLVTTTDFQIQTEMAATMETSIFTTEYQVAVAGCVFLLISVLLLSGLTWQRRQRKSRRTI
Chain of IL2Rαβγ, the high affinity IL-2 receptor, on human Treg cells (human) (P14784 27-551, chain 2 of 3, further chain): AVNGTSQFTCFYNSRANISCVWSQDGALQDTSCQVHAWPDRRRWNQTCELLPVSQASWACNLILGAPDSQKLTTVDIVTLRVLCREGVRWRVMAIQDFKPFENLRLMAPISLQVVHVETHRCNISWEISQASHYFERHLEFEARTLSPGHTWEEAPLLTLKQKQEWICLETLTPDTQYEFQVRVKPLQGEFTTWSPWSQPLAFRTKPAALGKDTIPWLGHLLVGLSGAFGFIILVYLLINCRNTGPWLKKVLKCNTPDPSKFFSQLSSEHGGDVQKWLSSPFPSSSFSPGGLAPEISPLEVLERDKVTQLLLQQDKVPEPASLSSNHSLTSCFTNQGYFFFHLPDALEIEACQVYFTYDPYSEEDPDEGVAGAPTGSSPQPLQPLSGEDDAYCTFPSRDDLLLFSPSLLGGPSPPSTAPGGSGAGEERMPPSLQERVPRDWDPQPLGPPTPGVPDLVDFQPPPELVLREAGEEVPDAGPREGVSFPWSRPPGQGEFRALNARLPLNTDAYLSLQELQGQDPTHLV
Chain of IL2Rαβγ, the high affinity IL-2 receptor, on human Treg cells (human) (P31785 23-369, chain 3 of 3, further chain): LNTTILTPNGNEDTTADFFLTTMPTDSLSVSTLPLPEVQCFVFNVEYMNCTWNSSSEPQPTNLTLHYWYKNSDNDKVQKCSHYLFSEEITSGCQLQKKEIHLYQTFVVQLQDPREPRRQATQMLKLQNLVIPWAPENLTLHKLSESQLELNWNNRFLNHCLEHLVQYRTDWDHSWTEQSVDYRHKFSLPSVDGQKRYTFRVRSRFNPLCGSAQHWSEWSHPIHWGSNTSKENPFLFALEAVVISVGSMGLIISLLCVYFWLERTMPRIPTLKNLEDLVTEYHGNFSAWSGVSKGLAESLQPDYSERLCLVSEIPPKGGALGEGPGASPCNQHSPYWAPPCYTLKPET

Percentage of pSTAT5+ cells, Treg cells in human PBMC, 10^-8 M protein: 99.9%
Substance: N88R/IL2 (from UniProt P60568 21-153) (ligand)
